Measured values as given in patent publication US20190022241A1 (AbbVie / Abbott, published 2019).

T1: human SEZ6L ECD-His (human, UniProt Q9BYH1 29-955)
T1 construct: whole entry named
T1 sequence: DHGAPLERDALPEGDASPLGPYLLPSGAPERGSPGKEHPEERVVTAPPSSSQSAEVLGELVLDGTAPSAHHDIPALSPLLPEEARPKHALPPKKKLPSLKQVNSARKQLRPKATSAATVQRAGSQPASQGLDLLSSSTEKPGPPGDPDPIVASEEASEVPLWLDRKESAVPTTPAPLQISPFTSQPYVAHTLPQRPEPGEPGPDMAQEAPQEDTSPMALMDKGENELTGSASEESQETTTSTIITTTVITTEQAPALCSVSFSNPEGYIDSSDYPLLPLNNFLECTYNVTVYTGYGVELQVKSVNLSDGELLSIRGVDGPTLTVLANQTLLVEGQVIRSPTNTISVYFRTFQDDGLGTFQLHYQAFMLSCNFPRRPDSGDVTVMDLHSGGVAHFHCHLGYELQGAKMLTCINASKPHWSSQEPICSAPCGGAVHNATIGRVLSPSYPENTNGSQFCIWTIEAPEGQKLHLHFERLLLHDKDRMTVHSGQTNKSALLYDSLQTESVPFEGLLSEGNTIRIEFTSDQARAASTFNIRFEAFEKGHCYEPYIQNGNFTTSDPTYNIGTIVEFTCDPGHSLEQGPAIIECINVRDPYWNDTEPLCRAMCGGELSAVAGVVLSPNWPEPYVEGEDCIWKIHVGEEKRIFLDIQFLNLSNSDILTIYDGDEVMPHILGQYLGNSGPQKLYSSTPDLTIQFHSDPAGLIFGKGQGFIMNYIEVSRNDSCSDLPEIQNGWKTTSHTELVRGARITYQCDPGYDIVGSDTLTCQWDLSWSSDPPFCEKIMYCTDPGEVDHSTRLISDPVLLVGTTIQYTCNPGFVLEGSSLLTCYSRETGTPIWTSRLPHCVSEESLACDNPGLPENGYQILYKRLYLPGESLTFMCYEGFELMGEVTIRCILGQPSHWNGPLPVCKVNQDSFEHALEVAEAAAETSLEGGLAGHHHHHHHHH

T2: extracellular domain of cynomolgus SEZ6 on yeast (cynomolgus, UniProt Q53EL9 23-925 (human entry))
T2 construct: yeast display; the whole entry is named; also called cSEZ6; cynomolgus SEZ6 ECD
T2 chain: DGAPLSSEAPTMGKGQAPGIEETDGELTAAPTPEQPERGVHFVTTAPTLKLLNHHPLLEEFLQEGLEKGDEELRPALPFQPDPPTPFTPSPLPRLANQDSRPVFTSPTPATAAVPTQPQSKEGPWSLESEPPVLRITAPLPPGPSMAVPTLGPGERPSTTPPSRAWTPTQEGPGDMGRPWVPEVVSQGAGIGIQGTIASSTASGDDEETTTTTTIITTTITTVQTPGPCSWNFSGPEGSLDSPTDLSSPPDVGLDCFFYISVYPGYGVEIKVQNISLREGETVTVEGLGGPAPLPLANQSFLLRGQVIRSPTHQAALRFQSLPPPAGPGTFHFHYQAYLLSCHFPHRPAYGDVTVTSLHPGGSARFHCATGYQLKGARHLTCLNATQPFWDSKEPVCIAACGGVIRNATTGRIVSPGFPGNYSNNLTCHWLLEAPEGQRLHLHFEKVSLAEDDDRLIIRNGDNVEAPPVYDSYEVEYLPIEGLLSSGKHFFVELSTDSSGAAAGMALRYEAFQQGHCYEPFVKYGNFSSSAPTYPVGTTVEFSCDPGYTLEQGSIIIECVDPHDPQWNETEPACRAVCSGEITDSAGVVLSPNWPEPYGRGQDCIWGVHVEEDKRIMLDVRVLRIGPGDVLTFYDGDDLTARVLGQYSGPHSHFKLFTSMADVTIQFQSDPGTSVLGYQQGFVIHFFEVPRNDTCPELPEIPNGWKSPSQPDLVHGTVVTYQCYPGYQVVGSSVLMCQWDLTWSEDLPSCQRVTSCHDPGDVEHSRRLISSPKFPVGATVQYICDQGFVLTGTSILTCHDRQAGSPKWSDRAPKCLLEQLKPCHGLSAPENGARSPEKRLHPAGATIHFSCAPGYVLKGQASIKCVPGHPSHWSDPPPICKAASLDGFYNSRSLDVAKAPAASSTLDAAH

T3: rSEZ6-ECD-His (rat, UniProt Q7TSK2 20-922 (mouse entry))
T3 construct: the whole entry is named; also called rat recombinant SEZ6-His; rat SEZ6 ECD
T3 chain: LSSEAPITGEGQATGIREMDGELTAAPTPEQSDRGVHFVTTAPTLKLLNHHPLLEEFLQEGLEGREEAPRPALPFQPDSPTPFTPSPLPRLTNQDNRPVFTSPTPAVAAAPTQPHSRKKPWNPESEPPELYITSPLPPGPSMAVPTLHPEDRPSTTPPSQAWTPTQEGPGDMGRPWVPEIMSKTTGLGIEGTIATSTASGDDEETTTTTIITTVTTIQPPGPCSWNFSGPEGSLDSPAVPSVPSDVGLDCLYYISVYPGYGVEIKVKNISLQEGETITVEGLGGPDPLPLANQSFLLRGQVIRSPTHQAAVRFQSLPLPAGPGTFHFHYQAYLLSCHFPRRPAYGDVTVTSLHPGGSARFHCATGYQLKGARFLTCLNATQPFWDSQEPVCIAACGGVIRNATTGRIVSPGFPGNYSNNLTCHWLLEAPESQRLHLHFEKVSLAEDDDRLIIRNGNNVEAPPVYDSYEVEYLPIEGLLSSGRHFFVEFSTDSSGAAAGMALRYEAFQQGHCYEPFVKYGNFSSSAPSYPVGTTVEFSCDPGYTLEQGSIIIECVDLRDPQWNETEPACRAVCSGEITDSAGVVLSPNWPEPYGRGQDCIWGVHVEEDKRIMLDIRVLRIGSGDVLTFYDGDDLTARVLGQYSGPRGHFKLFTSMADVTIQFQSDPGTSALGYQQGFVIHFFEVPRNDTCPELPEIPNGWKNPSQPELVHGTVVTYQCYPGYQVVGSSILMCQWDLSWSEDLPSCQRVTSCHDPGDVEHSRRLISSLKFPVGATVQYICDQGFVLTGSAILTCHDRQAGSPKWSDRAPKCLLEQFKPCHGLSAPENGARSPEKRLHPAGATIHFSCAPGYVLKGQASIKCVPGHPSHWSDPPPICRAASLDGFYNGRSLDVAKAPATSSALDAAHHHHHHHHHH

T4: rat SEZ6 on RIN-m5F cells (rat, UniProt Q7TSK2 20-991 (mouse entry))
T4 construct: endogenous on RIN-m5F cells; also called rSEZ6
T4 chain: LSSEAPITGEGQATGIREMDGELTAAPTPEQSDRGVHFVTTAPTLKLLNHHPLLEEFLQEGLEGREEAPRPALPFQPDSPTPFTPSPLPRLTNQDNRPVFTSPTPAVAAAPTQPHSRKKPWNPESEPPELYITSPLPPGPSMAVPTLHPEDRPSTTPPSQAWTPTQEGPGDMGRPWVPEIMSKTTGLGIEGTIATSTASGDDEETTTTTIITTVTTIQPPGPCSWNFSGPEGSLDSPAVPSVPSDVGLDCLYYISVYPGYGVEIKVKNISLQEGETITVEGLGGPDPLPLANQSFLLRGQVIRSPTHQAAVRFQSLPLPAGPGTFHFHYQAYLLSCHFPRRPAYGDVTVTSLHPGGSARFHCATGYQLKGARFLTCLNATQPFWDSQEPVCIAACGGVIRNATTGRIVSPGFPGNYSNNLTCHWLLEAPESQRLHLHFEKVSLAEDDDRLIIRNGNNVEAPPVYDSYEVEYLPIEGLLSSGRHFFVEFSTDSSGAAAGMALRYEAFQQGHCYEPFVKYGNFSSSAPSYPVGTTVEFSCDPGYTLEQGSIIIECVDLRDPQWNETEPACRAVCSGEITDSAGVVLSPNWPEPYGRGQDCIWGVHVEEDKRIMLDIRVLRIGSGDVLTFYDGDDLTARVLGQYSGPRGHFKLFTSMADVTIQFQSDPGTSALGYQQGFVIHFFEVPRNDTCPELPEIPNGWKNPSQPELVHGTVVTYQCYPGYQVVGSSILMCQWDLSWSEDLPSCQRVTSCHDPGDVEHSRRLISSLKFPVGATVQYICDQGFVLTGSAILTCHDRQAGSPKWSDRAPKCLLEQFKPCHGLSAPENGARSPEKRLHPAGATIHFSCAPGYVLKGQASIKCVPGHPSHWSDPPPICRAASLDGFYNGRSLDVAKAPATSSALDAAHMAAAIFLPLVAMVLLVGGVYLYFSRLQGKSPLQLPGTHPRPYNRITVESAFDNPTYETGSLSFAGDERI

T5: SEZ6 N3 (aa 170-335) on yeast (human, UniProt Q53EL9 189-354)
T5 construct: yeast display
T5 sequence: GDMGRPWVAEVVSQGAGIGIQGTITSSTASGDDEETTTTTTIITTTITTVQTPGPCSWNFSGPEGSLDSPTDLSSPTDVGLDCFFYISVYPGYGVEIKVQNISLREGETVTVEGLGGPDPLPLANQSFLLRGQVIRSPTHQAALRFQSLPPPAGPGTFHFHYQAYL


Legend:
human SEZ6L ECD-His = target: T1, human SEZ6L ECD-His; test: ELISA on plates coated with SEZ6L protein
human SEZ6L2 ECD-His = target: T6, human SEZ6L2 ECD-His (human, UniProt Q6UXD5 28-843); test: ELISA on plates coated with SEZ6L2 protein
T6 construct: whole entry named

[1] = target: T2, extracellular domain of cynomolgus SEZ6 …; test: flow cytometry on yeast displaying the extracellular domain of cynomolgus SEZ6
rSEZ6-ECD-His = target: T3, rSEZ6-ECD-His; test: bio-layer interferometry (ForteBio RED) or surface plasmon resonance (Biacore 2000) on rat SEZ6-His; the table does not say which; column Rat XR (Kd, nM)
hSEZ6-ECD-His = target: T7, hSEZ6-ECD-His (human, UniProt Q53EL9 20-925); test: bio-layer interferometry (ForteBio RED) or surface plasmon resonance (Biacore 2000) on human SEZ6-His; the table does not say which; column Hu Affinity (Kd, nM)
T7 construct: the whole entry is named; also called recombinant SEZ6-His; human recombinant SEZ6-His

[2] = target: T8, SEZ6 Sushi Domain 1 (amino acids 336-395) on yeast (human, UniProt Q53EL9 355-414); test: yeast display, flow cytometry;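 also: antibody binding to individual SEZ6 domains displayed on yeast, measured by flow cytometry, antibody at 50 nM purified or hybridoma supernatant diluted 1:2, 90 min on ice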
T8 construct: yeast display

[3] = target: T9, mouse SEZ6 on Neuro2a cells (mouse, UniProt Q7TSK2 20-991); test: flow cytometry on Neuro2a cells expressing mouse SEZ6
T9 construct: endogenous on Neuro2a cells; also called murine SEZ6; mSEZ6

[4] = target: T4, rat SEZ6 on RIN-m5F cells; test: flow cytometry on RIN-m5F cells expressing rat SEZ6, verified by BLI or SPR on rat SEZ6-His
[5] = target: T5, SEZ6 N3 (aa 170-335) on yeast; test: yeast display, flow cytometry;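 also: antibody binding to individual SEZ6 domains displayed on yeast, measured by flow cytometry, antibody at 50 nM purified or hybridoma supernatant diluted 1:2, 90 min on ice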

T6 sequence (Q6UXD5 other isoform, or with tags, fused parts or gaps): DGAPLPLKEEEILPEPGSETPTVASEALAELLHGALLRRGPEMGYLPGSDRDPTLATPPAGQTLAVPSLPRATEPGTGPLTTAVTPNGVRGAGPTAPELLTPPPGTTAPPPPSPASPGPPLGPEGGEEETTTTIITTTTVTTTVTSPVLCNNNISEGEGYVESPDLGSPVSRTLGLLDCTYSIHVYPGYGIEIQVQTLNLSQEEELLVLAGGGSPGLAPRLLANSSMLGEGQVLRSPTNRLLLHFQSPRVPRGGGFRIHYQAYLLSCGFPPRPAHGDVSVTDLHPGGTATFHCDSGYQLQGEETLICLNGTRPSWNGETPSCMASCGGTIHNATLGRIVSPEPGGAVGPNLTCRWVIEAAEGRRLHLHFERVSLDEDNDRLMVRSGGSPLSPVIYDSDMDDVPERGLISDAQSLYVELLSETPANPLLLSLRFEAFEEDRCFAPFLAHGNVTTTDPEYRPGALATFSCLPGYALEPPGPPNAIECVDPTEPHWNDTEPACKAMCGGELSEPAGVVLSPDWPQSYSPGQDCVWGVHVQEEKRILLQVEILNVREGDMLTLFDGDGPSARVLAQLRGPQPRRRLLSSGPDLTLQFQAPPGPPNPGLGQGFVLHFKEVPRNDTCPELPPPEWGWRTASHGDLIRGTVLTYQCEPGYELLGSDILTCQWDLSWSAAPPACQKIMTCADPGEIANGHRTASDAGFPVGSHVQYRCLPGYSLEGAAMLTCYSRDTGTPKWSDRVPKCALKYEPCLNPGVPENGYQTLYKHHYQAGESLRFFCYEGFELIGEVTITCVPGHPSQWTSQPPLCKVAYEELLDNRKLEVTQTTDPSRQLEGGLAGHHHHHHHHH

Binder	binding result (human SEZ6L ECD-His)	binding result (human SEZ6L2 ECD-His)	binding result [1]	binding result [5]	further results
SC17.42 (antibody, V domains shown, murine mAb) VH: DVKLVESGGGLVRPGGSLKLSCAASGFTFSRYTMSWVRQTPEKRLEWAATINSGGSNTYYPDSVKGRFTISRDNAKNTLFLQMSSLKSEDTAMYYCTNGNHWGQGTTLTVSS VL: ENVLTQSPAIMSASPGEKVTMTCSASSSVNYMYWYQQKSSTSPKLWIYDTSKLTSGVPGRFSGSGSGNSYSLTISNMEAEDVATYYCFQGSGYPLTFGSGTKLEIK	no binding (tested: 1 µg/mL)	no binding (tested: 1 µg/mL)	no binding (tested: 5 µg/mL)	–	Kd (rSEZ6-ECD-His): 3 nM; Kd (hSEZ6-ECD-His): 2.7 nM
SC17.46 (antibody, V domains shown, murine mAb) VH: QVQLQQPGAELVKPGASMKLSCKASGYTFTSYWINWVKQRPGQGLEWIGNIFPDTTTTNYNEKFKSKATLTVDTSSSTAYMQLSSLTSDDSAVYYCAREYYDGTYDAMDYWGQGTSVTV VL: SFVMTQTPKFLLVSAGDRVTITCKASQSVNNDVAWYQQKPGQSPKLLIYYASNRYTGVPDRFTGSGYGTDFTFTISTVQAEDLAVYFCQQDYSSPRTFGGGTKLEIK	no binding (tested: 1 µg/mL)	no binding (tested: 1 µg/mL)	no binding (tested: 5 µg/mL)	–	binding result [2]: binds; binding result [3]: no binding (tested: 5 µg/mL); binding result [4]: no binding (tested: 5 µg/mL)
SC17.85 (antibody, V domains shown, murine mAb) VH: EVQLVESGGDLVKPGGSLKLSCAASGFTFSNYGMSWVRQTPDKRLEWVATISTGGTYTYYPDSVKGRFTISRDNAKNTLYLQMSSLKSEDTAMYYCVGQSYSDYVSFAYWGQGTQVTVSA VL: DIVMTQAAFSNPVTLGTSASISCRSSKSLLHSNGITYLYWYLQKPGQSPQLLIYQMSNLASGVPERFSSSGSGSDFTLRISRVEAEDVGVYYCAQNLEHPTFGGGTKLEIK	–	–	–	binds	–
SC17.91 (antibody, V domains shown, murine mAb) VH: EVQLVESGGGLVKPGGSRKLSCAASGFTFSDYGMHWVRQAPEKGLEWVAYISRGSSTIHYADTVKGRFTISRDNAKNTLFLQMTSLRSEDTAMYYCARPFNWYFDVWGAGTTVTVSS VL: DVVMTQTPLSLPVSLGDQASISCRSSQSLVHSNGNTYLLWYLQKPGQSPKLLIYKVSNRFSGVPDRFSGSGSGTDFALKISRVEAEDLGVYFCSQSTHVPWTFGGGTKLEIK	–	–	–	binds	–
SC17.161 (antibody, V domains shown, murine mAb) VH: not shown VL: DIVMSQSPSSLAVSVGEKVTMNCESSQSLLYNSNQKNYLAWYQQKPGQSPKLLIYWASTRDSGVPDRFTGSGSGTDFTLTISSVRADDPAVYYCQQYFNYPLTFGAGTKLELK	–	–	–	binds	–
